# Experimental data from patent US20100124555A1, “Compositions and Methods for Treating Pancreatic Tumors” (UNIVERSITE DE LA MEDITERRANEE, priority 2007, published 2010).
# B1: 16D10: IgM monoclonal antibody recognizing FAPP/BSDL; producing cells deposited with the CNCM under the number I-3188 (antibody, listed as Mus musculus, V domains shown)
# VH: QVQLQQSDAELVKPGASVKISCKASGYTFTDHAIHWVKQKPEQGLEWIGYISPGNDVIKFNEKFKGKATLTADKSSSTAYMQLNSLTSEDSAVYFCKRSEGGVFDYWGQGTTLTVS
# VL: NIMMTQSPSSLAVSAGEKVTMSCKSSQSVLYSSNQKNFLAWYQQKPGQSPKLLIYWASTRESGVPDRFTGSGSGTDFTLTISSVQAEDLAVYYCHQYLSSYTFGGGTKLEIK
# How the values were obtained:
# [1] = Tissue cross-reaction study (staining of healthy tissues); settings: non-specific crossreactivity
# Experimental: The staining specificity of the IgM 16D10 and chimeric IgG rec16D10 antibodies was assessed by examining their respective staining of various healthy tissues. […] Staining with the chimeric antibody reel 6D10, in contrast, was negative on each of these healthy tissues.
# [2] = tested on: SOJ-6 cells; assay: Cell-cycle distribution by propidium iodide flow cytometry, SOJ-6; type: cell-based, human; settings: SOJ-6 after mAb16D10 treatment
# Experimental: Cells were washed twice using cold PBS 1×/BSA 0.2%/Sodium Azide 0.05% buffer. Staining was performed using the different antibodies during 1H at 4° C. into round 96-well plates using 5×10^4 cells per well. Cells were then washed twice before being incubated with secondary reagents. After two washes, cells were re-suspended before acquisition into PBS1X/Formaldehyde 1%. Stainings were acquired on a FACScan (Becton Dickinson, San Jose, Calif.) and results were analysed using FlowJo Software. SOJ-6 cells pre-treated or not with 5 μg/ml aphidicolin (a reversible inhibitor of eukaryotic nuclear DNA replication, which blocks the cell cycle at early S-phase) for 6 h, were then incubated with mAb16D10 or irrelevant IgM used as a negative control. Cells were released from culture plates with a non-enzymatic cell dissociation solution, washed with PBS^+/+, fixed with 70% ethanol at −20° C. and washed with PBS^+/+. The cells were resuspended in a solution of 400 μg/ml propidium iodide in isoflow buffer and were incubated for 30 min at room temperature as already described [Mi-Lian et al., 2004]. Cell-cycle distribution was detected by flow cytometry and analyzed by Mod Fit software (Verity Software House, Inc., Topsham, Me.). The red fluorescence of single events was recorded using excitation and emission at 488 nm and at 610 nm respectively, to measure the DNA index.
# We next wished to know whether mAb16D10-induced apoptosis was due, in part, to the arrest of the cell cycle. Cell cycle distribution of the SOJ-6 cells after treatment was assessed by observing DNA profiles following SOJ-6 cells pre-treated not or with aphidicolin, treated not or with mAb16D10. Each experiment was carried out in triplate. We used a specific DNA marker, Propidium Iodide, to determine the different phases of the cell cycle by flow cytometry. […] Indeed, the shift of cells from the G2/M to the G1/S phase and from the G1/S to the apoptosis was also observed following aphidicolin treatment. […]
# [3] = tested on: E-cadherin in PANC-1 cells; assay: Immunofluorescence of E-cadherin, PANC-1; type: cell-based, human; settings: PANC-1 treated or not with mAb16D10
# [4] = tested on: SOJ-6 cells; assay: Apoptosis by caspase activity (CaspACE FITC-VAD-fmk in situ marker); type: cell-based, human
# Experimental: Cells grown in 8-well plates (Polystyrene vessel, BD Falcon) were treated with mAb16D10 or mouse IgM in RPMI with inactivated FCS for 24 hours prior to the addition of CaspACE FITC-VAD-fmk in situ marker (Promega) at a final concentration of 10 μM in the culture medium according to manufacturer's instructions. Then cells were washed in PBS, fixed for 15 minutes in 2% paraformaldehyde, and washed once again. Upon caspase action on FITC-VAD-fmk, apoptotic cells become fluorescent and the number of fluorescent cells was determined in triplicate on collections of 10 fields randomly examined under the fluorescent microscope.
# [5] = tested on: E-cadherin, β-catenin in SOJ-6 cells; assay: Immunoblotting and immunofluorescence of E-cadherin/β-catenin complex, SOJ-6; type: cell-based, human
# Experimental: SOJ-6 cells were grown in 6-well culture plates in RPMI 1640 medium with 10% FCS. At subconfluency, the medium was removed and replaced for 24 hours by fresh RPMI medium with 10% inactivated FCS. SOJ-6 cells were then incubated with mAb16D10 or Cisplatin for 24 hours. At the end of incubation, cells were washed three times with ice-cold PBS (without […] and Mg^++) harvested and pelleted by centrifugation. Pellets were washed twice and lysed at 4° C. in 0.5 ml of lysis buffer (10 mM Tris-HCl pH 7.4, 150 mM NaCl, 1% Triton X-100, 1 mM benzamidine and phosphatase inhibitors). After lysis, homogenates were clarified by centrifugation at 10,000 g for 10 min at 4° C. An aliquot was saved for protein determination using the bicinchoninic acid assay (Pierce, Rockford, Ill.). Proteins (50 μg/lane) in reducing SDS buffer were separated onto 10, 12, or 15% polyacrylamide with 0.1% SDS (according to the molecular weight range of proteins to be separated). After electrophoretic migration, proteins were silver stained. Alternatively, proteins were transferred onto nitrocellulose membranes using a Mini Transblot electrophoretic cell (BioRad, Hercule, Oreg.), and transferred proteins were immunodetected by using appropriate primary and secondary antibodies. After washes, membranes were developed with a chemoluminescent substrate according to the manufacturer's instructions (Roche Diagnostics, Switzerland). In each experiment, a control was included by omitting primary antibodies or by using a non-immune serum.
# These molecules might confer to these lipid raft domains the role of signalling. Immunoblottings were performed to examine the expression of E-cadherin and of β-catenin by pancreatic tumoral cells.
# Several studies have shown that, in the absence of Wnt signalling, the phosphorylation of residues of β-catenin addressed this protein to degradation by the ubiquitin-dependent proteasome pathway (Aberle et al., 1997 EMBO J. 16(13): 3797-804 and Orford et al., 1997 Biol. Chem. 272(40): 24735-8). […] Furthermore, β-catenin may be regulated by GSK-3β, which itself is activated in cells once treated with mAb16D10 (FIG. 11). […] Lastly, we wanted to determine whether the association of E-cadherin, β-catenin, and 16D10 antigen in the rafts microdomains is required for mAb16D10 to induce apoptosis (FIG. 13).
# [6] = tested on: SOJ-6 cells; assay: MTT cell growth and proliferation assay, SOJ-6; type: cell-based, human; settings: SOJ-6, increasing concentrations of antibody, 24 h
# Experimental: Cell proliferation was determined using MTT assay as previously described (Mosmann et al., 1983 J Immunol Methods, 65(1-2):55-63). Briefly, cells were seeded at subconfluence in appropriate complete media containing 10% FCS in 96-well culture plates. Media were replaced for 24 h by fresh media with 10% inactivated FCS, including increasing concentrations of antibodies directed against FAPP (pAbL64, mAbJ28 and mAb16D10). Cells were washed with PBS and incubated with 100 μl of MTT (0.5 mg/ml) in complete media for 3 h, washed with PBS and finally incubated with DMSO for 30 min at 37° C. Cell growth was determined by measuring absorbance at 550 nm using a MR 5000 microplate spectrophotometer. All independent determinations were done in triplicate and compared to control.
molecule,measurement,setting,value
B1,"staining of healthy tissues (tonsils, salivary gland, peripheral nerve, eyes, bone marrow, ovary, oviduct, parathyroid, prostate, spleen, kidney, adrenals, testes, thymus, ureters, uterus, bladder)",[1],positive staining
same,apoptotic cells,[2],6%
same,cells in G1/S,[2],96%
same,cells in G2/M phase,[2],4%
same,E-cadherin at the plasma membrane,[3],did not express E-cadherin at their plasma membrane
same,apoptotic cellular death of SOJ-6 cells (number of apoptotic cells/cm2),"[4]; 24 h, compared to RPMI and mouse IgM",leads to the apoptosis of SOJ-6 cells
same,apoptosis by caspase activity (number of apoptotic cells compared to control),"[4]; SOJ-6, 24 hours, 16D10 25 μg/ml, recombinant chimeric 16D10 5 μg/ml",clearly enhanced
same,caspases through which apoptosis is stimulated,[4]; cells pre-treated with or without caspase inhibitors,"stimulates apoptosis through the caspase-3, caspase-8, and caspase-9"
same,phosphorylation of β-catenin,[5]; SOJ-6,phosphorylated
same,expression of β-catenin,"[5]; SOJ-6, 25 μg/ml, 24 h",did not induce a significant change in the expression of β-catenin
same,E-cadherin protein expression,"[5]; SOJ-6, 25 μg/ml, 24 h, versus irrelevant IgM",high E-cadherin protein expression
same,localization of β-catenin,"[5]; SOJ-6, fluorescence microscopy, plasma membrane in untreated cells",found in the cytosolic compartment
same,% growth of cells,[6],does cause a decrease in SOJ-6 cells
